The values below come from PMC3187746.

Data set [1] addresses in vitro translated, radiolabeled pUL77 (wild type, from pcDNA-UL77) (human cytomegalovirus (HCMV)) (UniProt P16726). The data set is described as follows: cross-linking; in vitro translated, radiolabeled protein in PBS, 0.01% glutaraldehyde, 8% SDS-PAGE, autoradiography.
Data set [2] deals with pUL77 (Human cytomegalovirus (cosmid pCM1075; strain not stated)) (UniProt P16726). The data set is described as follows: pull-down. The note with it: scale: binding efficiency.
Data set [3] deals with purified recombinant pUL77 (rpUL77) (human cytomegalovirus (HCMV)) (UniProt P16726). The data set is described as follows: cross-linking.

The stoichiometry N is the number of molecules, sites or subunits per partner or assembly.

With “in vitro translated, radiolabeled pUL77 (wild type, from pcDNA-UL77) (from UniProt P16726 1-642) (natural protein)”, the stoichiometry N in data set [1] came to 2.

The substance bio-1000 bp registered a binding signal in data set [2] of 4.9.

In turn, bio-500 bp registered a binding signal in data set [2] of 2.2.

Consider bio-250 bp, for which the binding signal in data set [2] was 0.5.

As to “purified recombinant pUL77 (rpUL77) (from UniProt P16726 1-642) (natural protein)”, the stoichiometry N in data set [3] stood at 2.
